Measured values reported in the supplement of paper PMC9428881.
± gives the standard error.

Test: background-corrected fluorescence of 3'-dye-labeled ssDNA relative to brightest sequence (3'-GCGCG) (fraction); higher = brighter dye fluorescence (less quenching)
In short: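 Subtracting background from unlabeled oligos and scaling to the brightest sequence gave the reported fluorescence. Single-stranded DNA bearing a 3' Cy3 or Cy5 dye next to each of 1024 permuted pentamers was assembled on glass slides by light-directed phosphoramidite synthesis. Following a 2 h r.t. acetonitrile wash, slides were scanned at 532 or 635 nm before and after overnight ethylenediamine/ethanol deprotection, and values were averaged over 10 features per array and at least 3 syntheses.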

Row | Sequence | background-corrected fluorescence (dye: Cy3 (3' terminal)) | background-corrected fluorescence (dye: Cy5 (3' terminal))
1 | TTTTTTGCTGCTGCTGATCATTTTTTTTTTTTTTTAAACG [GCAAA] | 0.559 ± 0.023 | 0.426 ± 0.028
2 | TTTTTTGCTGCTGCTGATGATTTTTTTTTTTTTTTAAACC [CCAAA] | 0.403 ± 0.035 | 0.29 ± 0.015
3 | TTTTTTGCTGCTGCTGATGCTTTTTTTTTTTTTTTAAACA [ACAAA] | 0.51 ± 0.039 | 0.407 ± 0.023
4 | TTTTTTGCTGCTGCTGCGCATTTTTTTTTTTTTTTAAAAT | 0.596 ± 0.022 | 0.462 ± 0.077
5 | TTTTTTGCTGCTGCTGCTCATTTTTTTTTTTTTTTAAAAG [GAAAA] | 0.576 ± 0.021 | 0.403 ± 0.03
6 | TTTTTTGCTGCTGCTGCTGATTTTTTTTTTTTTTTAAAAC [CAAAA] | 0.461 ± 0.048 | 0.321 ± 0.019
7 | TTTTTTGCTGCTGCTGCTGCTTTTTTTTTTTTTTTAAAAA | 0.593 ± 0.0096 | 0.476 ± 0.026
